Measurements reported in US12679878B2, “CRF2 receptor agonists and their use in therapy” (SANOFI, priority 2020, dated 2026).
Starred links: 1 amine or outer side, 2 acyl side, 3 side chain; linkers in the order of their positions; H or OH if unused. Non-standard residues stand in square brackets, D forms with d. Groups on a side chain read outwards from the residue. No end group written: not given here. *: point of attachment. γGlu = O=C(O)[C@H](CCC(=O)[*:2])N[*:1]; Palmitoyl = CCCCCCCCCCCCCCCC(=O)*; Aib = CC(C)(N)C(=O)O

T1: anti-target CRF1R receptor (UniProt P34998 24-415, limits assumed)
T1 sequence (looked up): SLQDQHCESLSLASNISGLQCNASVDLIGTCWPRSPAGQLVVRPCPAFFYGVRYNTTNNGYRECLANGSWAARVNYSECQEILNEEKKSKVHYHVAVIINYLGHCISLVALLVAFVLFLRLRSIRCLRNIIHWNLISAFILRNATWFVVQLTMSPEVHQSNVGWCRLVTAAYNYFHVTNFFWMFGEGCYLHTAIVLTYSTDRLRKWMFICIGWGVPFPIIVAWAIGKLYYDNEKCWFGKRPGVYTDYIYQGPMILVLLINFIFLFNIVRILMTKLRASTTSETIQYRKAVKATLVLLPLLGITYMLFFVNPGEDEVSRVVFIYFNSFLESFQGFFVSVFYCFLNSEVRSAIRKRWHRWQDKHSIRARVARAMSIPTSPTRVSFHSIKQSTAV

B1: peptide of SEQ ID NO: 19 (peptide)
peptide: IVLSLD[dV]PTKLK([γGlu-Palmitoyl])QKLLKQERQR[Aib]EREQAEKNKRILERV-NH2
modifications: N-terminus assumed
SMILES: CCCCCCCCCCCCCCCC(=O)N[C@@H](CCC(=O)NCCCC[C@H](NC(=O)[C@H](CC(C)C)NC(=O)[C@H](CCCCN)NC(=O)[C@@H](NC(=O)[C@@H]1CCCN1C(=O)[C@H](NC(=O)[C@H](CC(=O)O)NC(=O)[C@H](CC(C)C)NC(=O)[C@H](CO)NC(=O)[C@H](CC(C)C)NC(=O)[C@@H](NC(=O)[C@@H](N)[C@@H](C)CC)C(C)C)C(C)C)[C@@H](C)O)C(=O)N[C@@H](CCC(N)=O)C(=O)N[C@@H](CCCCN)C(=O)N[C@@H](CC(C)C)C(=O)N[C@@H](CC(C)C)C(=O)N[C@@H](CCCCN)C(=O)N[C@@H](CCC(N)=O)C(=O)N[C@@H](CCC(=O)O)C(=O)N[C@@H](CCCNC(=N)N)C(=O)N[C@@H](CCC(N)=O)C(=O)N[C@@H](CCCNC(=N)N)C(=O)NC(C)(C)C(=O)N[C@@H](CCC(=O)O)C(=O)N[C@@H](CCCNC(=N)N)C(=O)N[C@@H](CCC(=O)O)C(=O)N[C@@H](CCC(N)=O)C(=O)N[C@@H](C)C(=O)N[C@@H](CCC(=O)O)C(=O)N[C@@H](CCCCN)C(=O)N[C@@H](CC(N)=O)C(=O)N[C@@H](CCCCN)C(=O)N[C@@H](CCCNC(=N)N)C(=O)N[C@H](C(=O)N[C@@H](CC(C)C)C(=O)N[C@@H](CCC(=O)O)C(=O)N[C@@H](CCCNC(=N)N)C(=O)N[C@H](C(N)=O)C(C)C)[C@@H](C)CC)C(=O)O
B2: peptide of SEQ ID NO: 21 (peptide)
peptide: IVLSLD[dV]PTKLK([γGlu-Palmitoyl])QKLLKQERQRKE[Aib]EQAEKNKRILERV-NH2
modifications: N-terminus assumed
SMILES: CCCCCCCCCCCCCCCC(=O)N[C@@H](CCC(=O)NCCCC[C@H](NC(=O)[C@H](CC(C)C)NC(=O)[C@H](CCCCN)NC(=O)[C@@H](NC(=O)[C@@H]1CCCN1C(=O)[C@H](NC(=O)[C@H](CC(=O)O)NC(=O)[C@H](CC(C)C)NC(=O)[C@H](CO)NC(=O)[C@H](CC(C)C)NC(=O)[C@@H](NC(=O)[C@@H](N)[C@@H](C)CC)C(C)C)C(C)C)[C@@H](C)O)C(=O)N[C@@H](CCC(N)=O)C(=O)N[C@@H](CCCCN)C(=O)N[C@@H](CC(C)C)C(=O)N[C@@H](CC(C)C)C(=O)N[C@@H](CCCCN)C(=O)N[C@@H](CCC(N)=O)C(=O)N[C@@H](CCC(=O)O)C(=O)N[C@@H](CCCNC(=N)N)C(=O)N[C@@H](CCC(N)=O)C(=O)N[C@@H](CCCNC(=N)N)C(=O)N[C@@H](CCCCN)C(=O)N[C@@H](CCC(=O)O)C(=O)NC(C)(C)C(=O)N[C@@H](CCC(=O)O)C(=O)N[C@@H](CCC(N)=O)C(=O)N[C@@H](C)C(=O)N[C@@H](CCC(=O)O)C(=O)N[C@@H](CCCCN)C(=O)N[C@@H](CC(N)=O)C(=O)N[C@@H](CCCCN)C(=O)N[C@@H](CCCNC(=N)N)C(=O)N[C@H](C(=O)N[C@@H](CC(C)C)C(=O)N[C@@H](CCC(=O)O)C(=O)N[C@@H](CCCNC(=N)N)C(=O)N[C@H](C(N)=O)C(C)C)[C@@H](C)CC)C(=O)O

Biological target: T1, anti-target CRF1R receptor
Assay: cell-based or functional assay

Row | Binder | EC50[nM] 0% HSA (cAMP, CRF1R-overexpression CHO cells) | Emax (%) (cAMP, CRF1R-overexpression CHO cells)
1 | IVLSLD[dV]PTKLK([γGlu-Palmitoyl])QKLLKQERQRKEREQAEKNVRILERV-NH2 (not fully specified; printed as IVLSLDvPTKLK*QKLLKQERQRKEREQAEKNVRILERV-NH2) [peptide of SEQ ID NO: 32] | > 1000 nM | 27%
2 | B1 | 571 nM | 57.4%
3 | B2 | 618 nM | 59.2%
